experiment: soluble on expression in E. coli; label from the status in PepcDB or PDB records

Sequence	soluble on expression in E. coli
MEWIERLNKAMSYIEEHITEEIDFEQTAKIACCSAYHFQRMFTYMAGIPLSEYIRRRRMTLAAVELQSSDEKVIDIALKYGYASPTAFNRAFQSVQGITPSAAKKKGTPVKSYPPLSFAITIKGVEGMNYRIEEKEAFRIIGIAQSMSKNLEENFAVVPQMWGKAAADGTIQKLASMIEGQPAGLLGVSICNNEEDWRYFIAVSGTRPAEAPFEEYRVPASTWAVFPGTGTNLSVQDLERRIVTEWLPTSGYEYGSAPDIEVYISPNPENAKYEVWIPVVKKQ	not soluble
MEYGCQPNVLKKTILKMVKRRIHVEGAKKAVNEALLNSQAKAAEEICRIAYESPGGVVFLGAPTGAGKTEVFMAPLLASFASKRPIAARGFLVEPMHSLIKAMVDRLKTSIETLGVSEDHGETVQPTFLYTAPITVTTPDTYFYGFAASRVYRILTHEGVETGRFSMPVGLQATSYTVFDEAHLVQDEVFLSPRLLSLVVAALARAGGLIVVSSATLPSYYKTVIREKLGDWRVEEV	not soluble
MFADLDYDIEEDKLGIPTVPGKVTLQKDAQNLIGISIGGGAQYCPCLYIVQVFDNTPAALDGTVAAGDEITGVNGRSIKGKTKVEVAKMIQEVKGEVTIHYNKLQADPKQGMSLDIVLKKVKHRLVENMSSGTADALGLSRAILCNDGLVKRLEELERTAELYKGMTEHTKNLLRAFYELSQTHRAFGDVFSVIGVREPQPAASEAFVKFADAHRSIEKFGIRLLKTIKPMLTDLNTYLNKAIPDTRLTIKKYLDVKFEYLSYCLKVKEMDDEEYSCIALGEPLYRVSTGNYEYRLILRCRQEARARFSQMRKDVLEKMELLDQKHVQDIVFQLQRLVSTMSKYYNDCYAVLRDADVFPIEVDLAHTTLAYGLNQEEFTDGEEEEEEEDTAAGEPSRDTRGAAGPLDKGGSWCDS	soluble
MFADLDYDIEEDKLGIPTVPGKVTLQKDAQNLIGISIGGGAQYCPCLYIVQVFDNTPAALDGTVAAGDEITGVNGRSIKGKTKVEVAKMIQEVKGEVTIHYNKLQADPKQLEVLFNGPGIESVKI	soluble
MFALVLFVCYLDGGCEDIVVDIYDTEQHCLYSMDDQRIRHGGCFPVEDFIDGFWRPAQQYSDFLEHHHHHH	not soluble
MFAPQGLAQFIKVNVTLENGEPVFIYTDANGQVCQGDITVTQAGTITYLLNDQTLKGLKFVGVGFVTPFDGIIDAVTISSDGMLVQLVDLDKTPGTTKFQFVLSNTANTLLVLSPDPQIINRPQN	soluble
MFARIESGKIIAQKRKELGKTQKVLAEETNVNKSIISQIENGKFSGSLRVYEKYINGLGLELAVRPIKSKIPDFDNLHHLFPDE	not soluble
MFDRSRKGEYALLIQPLTDHSAEDGALEEFADLTRSAGATVAGSLAVRIHRPNPSTLLSSGKLKEIKETADATGADLILINHSLSPVQERNLEKSLERRVIDRTGLILDIFAQRACSHEGKLQVELAQLRHLATRLVRGWTHLERQRGGAIGLRGPGETQLETDRRLLQKRVEQLQKRLSKVEVQRTQMRRARVRSEVPRIALVGYTNSGKSTLFNALTGASAYTANQLFATLDPKVRRIVLPGSSAMLADTVGFVRHLPHELVAAFRSTLSEAREADLLLHVIDAADPLREERIDQVDEVLQAIGAGELPQLLVFNKIDCIEGAEVRQDAQDGIPDQARRERVWLSARHGHGVELLQQILNHRLKIQNVQSELRLPPSEGRLRARLHELKGVREEQTDEHGWLLKIDLSLAEIERLAASDYGIPLRALLQDHRDAWTPTLHSKYVSAEYLEHHHHHH	not soluble
MFDSTLNPLWQRYILAVQEEVKPALGCTEPISLALAAAVAAAELEGPVERVEAWVSPNLMKNGLGVTVPGTGMVGLPIAAALGALGGNANAGLEVLKDATAQAIADAKALLAAGKVSVKIQEPCDEILFSRAKVWNGEKWACVTIVGGHTNIVHIETHDGVVFTQQACVAEGEQESPLTVLSRTDAG	not soluble
MFEDLLQTKRLIKSYYYYPKLVLVINIAEYLYSKGRDVCIFNFDKIKWEYYPYNLNFHMKCNERSENIIFEAEDESEIPNNFSLVTSIKKLNLGIPQSEIQKLDQNLFKINIDNKIYLFRIIEGKIVEEKIKGLSEEIINILREYNELSLKEIVDILYHKTNSSRDNIRKEIYFLKDIGVIEIKNGKVLLNNNSWLKR	soluble
MFEGFKEVTDKDFYKAVMMNPKPSVVVFTDPNNPANEQIKPILEKYQKLYGDKIDFFYMDVTKNTSFEDFGIFNFPAILYFRDTMELDRHDFIPTEEMVEQAIKRLLRMV	not soluble
MFEGGHSKSFSIFPIRVVYMPVEQGEVPATILISVSKRRFKRAVKRNRVKRQIREVYRKNKQPLLDGLQNKGQRLAIAFIYLSDELVATAELEEKMKTALSRISEKLSL	not soluble
MFEINKQIGIYIHFPWCVRKCPYCDFNSHPIKDDSYLSEQYYQKLIADFDTHLDDLQAREVISIFIGGGTPSLFKAEYLDKVLQHITKNTKISINCEITLEMNPGTVERGSILSYQNIGINRISLGVQSFQDDKLKILGRIHNCENVYTTIDEIKNSKISNFNIDIMHGLPNQSFDDGIFDITQAIAMQPTHISWYQLTIEPNTLFAAKRPKFPDEEILESIEIAGKEALAHAGFKQYEVSAFAKNTLRSIHNSNYWMFGDYIGIGAGAHSKITNLKTKQIKRVWKHKHPKIYTQTDKFIKDSNIVTQDEIIYEFMLNTLRLKNGFKLSEFEQQTFLSSNIISQKLQLGIDKGLLELNANQIKPTAKGYLFLNDCINIFS	not soluble
MFFIMNYHIDWLTIEQDFGFEIPESILAAIFDFGMVGIHLDTGEMQEGIKTGKYRHKGSFCDEVSIKVSGSVIKMEGNPSRWGKVENVLGFTDVDSCVACFNNILFSLNLPLFTRCTEVFYLQGKEGEKVKKFSNGAIIKRLDITTNKSVGKGNERTFLKALSQMRYRNSVGRLHTNHCTVDWLSEKGNANLIYPSCYIKHEEMKLHSYDKIKNKFGQQAKEFQYYQKVFDYCLENGVVRFEQKLKSRYLQRENLCYWGLSDFSKLNEIQDGFINMYKKLSVSEVKLETIAQQLVSQGVVDTLRKANTTAYYAMRWSSGEDLSLLPIATFKRHRAILRKIGIDIANPCDIEKFQAVRVISCEQIFVKPFKAPDFYQYPSNMPQLRLVALEHHHHHH	not soluble
MFFKRGKILSAGRLNKKSLGIVMLLSVGLLLAGCSGSKSSDTGTYSGSVYTVKRGDTLYRISRTTGTSVKELARLNGISPPYTIEVGQKLKLGGAKSSSITRKSTAKSTTKTASVTPSSAVPKSSWPPVGQRCWLWPTTGKVIMPYSTADGGNKGIDISAPRGTPIYAAGAGKVVYVGNQLRGYGNLIMIKHSEDYITAYAHNDTMLVNNGQSVKAGQKIATMGSTDAASVRLHFQIRYRATAIDPLRYLPPQGSKPKC	not soluble
MFFNLRKNKKRLGWFNNGEVEAVAKDLGVAPSEVREMEARLAAQDSTFEAPAEDDDRDMAFTAPVYYLEDKQSDVAYSLEEDNWEDYTNNRLANAIATLDERSQHIVQSRWLADEKATLQELADTYQVSAERIRQLEKNAMKKLKDAVGDVL	not soluble
MFGGIENVKAAEPKVYQFDFGSGSMEPGYIGVRASDRYDRSKGYGFQTPENMRDVAASGAGVKSDAVEFLAYGTKSNNTFNVDLPNGLYEVKVTLGNTARASVAAEGVFQVINMTGDGAEDTFQIPVTDGQLNLLVTEGKAGTAFTLSALKIKKLSDQPVTNRTIYVGGDSTVCNYYPLNSSKQAGWGQMLPHYIDKHTFQVRNMASGGQIARGFRNDGQLEAILKYIKPGDYFMLQLGINDTNPKHKESEAEFKEVMRDMIRQVKAKGADVILSTPQGRATDFTSEGIHSSVNRWYRASILALAEEEKTYLIDLNVLSSAYFTSIGPERTLGLYMDGDTLHPNRAGADALARLAVQELKRQGIAGFLEHHHHHH	soluble
MFGGSAPKPSIFGGTAATTTASSGFSFGNSSTSTANTGGNTNTTGGFSFGSAQPSTGSTGLFGNSTATGSMFGGSSAAAPAPASAGIFGNSGAAAPAPASTSIFGSSANSAAPATVTFGASAPSAGAGMFGANKPAAPTGGLFGSSTSTATTAPTGGLFGSSTAAPSSGLFGSTAAPAAPGGLFGSTSTSTAAPSGGLFGSSAAPTSTAPAPSGGLFGAAPATSNAAPTSGLFGNSAPAATASSGGLFGAAPKPAAPSGGLFGSTAPATTAATTTATSGLFGAPTSAPSSAPATGGLFGASTAPAAATGGLFSIGAASASTPSVGLFGNSSASTTAAAAPATAPAAASTGGLFGATTAAAAAPTSSTTGGLFGSTAAAPAASLPTGGLFGSSTPAKTPAAPTAGLFGASSTTTTSAPATGSLFGTAPATTTATSAAPAASTGGLFGASSTTTPASTAPTGGLFGAATTTAPAAAAPTGGLFGAATTTAPATVGPTGGLFGAATTTTPATAATLGQTPSTVSATPSLPTTTSTTSTLPKPAEATPTLGLGLGLTSTPLAKGTGWTTSGLKGAATTSAGLKIGASGSDTLSEEEIKAGLGGNDTKAFFTALQEVVNSYHSEIAKQERVFHNKMLELNAYDRELITLEPKVLGLYNEMDDLSGSCKKLHFNVASMTSVLNDIEQNVVELENKLSLPEWHTLDYKFPLDSRFASRHDVQRVQIAQMMLNVDSQMKCADFDLDQITKSLNTMQSTVLKTKTETPLEKTELIMKKQLQKLMDLSTQHDATRDKLNKLKDDHNLKTNNSSKA	not soluble
MFGLKVKNAEADTAKSNEKLQGAEATGSSTTSGSGQSTQRGGSSGDTKVKALQVAVKKKSGSQGNSGDQGTEQVELESNDLANAPIKRGSNPASPTQGSRLRHHPIQFGIWSIRHPHPLKAVACDRANSQGPPQMIRLDPHSVRCALCL	soluble
MFGRQVGRVVFRTASVVVQRRSVSASVPQMVKLVAPSVNFIQTRGSKIEVFGPFDPPKQLTFKQVEDRVLKAVRSWDRFPADKESLLKLDADLSKDFGFDSLDQVEIVMALEDEFGFEIPLQDSDKFKTIRDAFKYICEREDVYE	not soluble
MFGWRGRIGLIVPSSNTTMEMELHSFLPEGVSLHTSRMPLKSITDEELFKMNSYAIEAASLLADAGVEVIAFGCSSGSFIGGQDFEKELEMKIEEEVNIETFTTSTAVLEALDVLDAQSLLIVTPYSDEINQKEKEFLEGNGFEVLDIKGLNLTDNLEIGKLEPYVVYRLAKAMFAGDADAIFISCTNLRTFEIIEKLERDLGVPVITSNQATLWMALRQIDVRDQLPLGKLLREY	soluble
MFHGKHPGGLSERGRALLLEGGKALGLDLKPHLEAFSRLYALLQEASGKVNLTALRGEEEVVVKHFLDSLTLLRLPLWQGPLRVLDLGTGAGFPGLPLKIVRPELELVLVDATRKKVAFVERAIEVLGLKGARALWGRAEVLAREAGHREAYARAVARAVAPLCVLSELLLPFLEVGGAAVAMKGPRVEEELAPLPPALERLGGRLGEVLALQLPLSGEARHLVVLEKAALTSLAYPRRPGVPERHPLC	soluble
MFIDTLIEKIREKDNPSVVGLDPKIEYVPSFIKEDMYKKYGKNLKAVAEAILLFNKYIIDAVYDIVPAVKPQLAYYEMYGLEGMRVFYETCKYAKEKGLLVIADGKRNDIGSTAQCYSAAYLGKTDIDEGISEAVFDVDALTVNPYLGVDGIKPFIDDCVKYNKGIFVLVKTSNKSSGEIQDILTQEGRSIYEIVAEYVESWGENKKGKYGYSCVGAVVGATYPNLAKILRKILKNSYILVPGYGAQGGTARDVAHCFNYDGLGAIVNASRSIMCAYKSEQWKNVYSEEKFYEASRAEAIRMRDDINSALRDRK	not soluble
MFIKIFLITYRYKLTVISIIGGGTIGSSIAIPLKRSGFEVIVTRRNTAVLKHLESYGISVMSDNKTASKEADVVFLTLKPVDIIPEVRKIEENIRGKLLISMAAAIPLKLIKDAAPHSIVVRAMTNIAAKVGAGFTPFCVDDGDQEVAKRASSILSALGEVYLVEEKYMDALTALSGSGPAYILTIIEAMMYGGLKLGLPRDLALKASYQTVMGSAKLLAESGEHPSELKEKVITPGGTTIDGIYELEDARVRTAIMKAIEVSTMKANKISESIKKLEQLEHHHHHH	not soluble

— the DeepSol protein solubility set
